B1: IGF1R-3 VHH (VHH)
VHH: QVKLEESGGGLVQAGGSLRLSCVASEYPSNFYAMSWFRQAPGKEREFVAGVSRDGLTTLYADSVKGRFTMSRDNAKNTVDLQMNSVKAEDTAVYYCAIVITGVWNKVDVNSRSYHYWGQGTQVTVSS
notes: Llama VHH expressed in E. coli TG1 from pSJF2H and tested as monomer; also called anti-IGF1R VHH IGF1R-3; IGF1R VHH; not shown: C-terminal tag from expression vector pSJF2H (protein purified by IMAC)
B2: IGF1R-3_H4 (VHH)
VHH: B1 VHH with K3Q, E5V, A14P, V23A, A75S, D80Y, V86L, K87R, Q122L
notes: Humanized variant of IGF1R-3, monomeric VHH; not shown: C-terminal tag from expression vector pSJF2H (protein purified by IMAC)
B3: IGF1R-3_H5 (VHH)
VHH: EVQLVESGGGLVQPGGSLRLSCAASEYPSNFYAMSWFRQAPGKEREFVSGVSRDGLTTLYADSVKGRFTISRDNSKNTLYLQMNSLRAEDTAVYYCAIVITGVWNKVDVNSRSYHYWGQGTLVTVSS
notes: as for B2
B4: IGF1R-3_H1 (VHH)
VHH: B3 VHH with F37V, E44G, R45L, F47W
notes: as for B2
B5: IGF1R-3_H2 (VHH)
VHH: B3 VHH with E1Q, F37V, E44G, R45L, F47W, S49A, I70M, L79V
notes: as for B2

Changes are numbered by the printed parent chain.

These results are taken from patent US20170015749A1 (NATIONAL RESEARCH COUNCIL OF CANADA, published 2017).

For one experiment, the target named is T1, recombinant human Insulin Receptor (R&D systems) (human, UniProt P06213-2 28-944, limits assumed).
T1 construct: extracellular domain; Immobilized on a CM5 chip at about 4000 RU; also called IR; recombinant extracellular portion of the human Insulin Receptor
T1 sequence (P06213 other isoform, or with tags, fused parts or gaps limits assumed): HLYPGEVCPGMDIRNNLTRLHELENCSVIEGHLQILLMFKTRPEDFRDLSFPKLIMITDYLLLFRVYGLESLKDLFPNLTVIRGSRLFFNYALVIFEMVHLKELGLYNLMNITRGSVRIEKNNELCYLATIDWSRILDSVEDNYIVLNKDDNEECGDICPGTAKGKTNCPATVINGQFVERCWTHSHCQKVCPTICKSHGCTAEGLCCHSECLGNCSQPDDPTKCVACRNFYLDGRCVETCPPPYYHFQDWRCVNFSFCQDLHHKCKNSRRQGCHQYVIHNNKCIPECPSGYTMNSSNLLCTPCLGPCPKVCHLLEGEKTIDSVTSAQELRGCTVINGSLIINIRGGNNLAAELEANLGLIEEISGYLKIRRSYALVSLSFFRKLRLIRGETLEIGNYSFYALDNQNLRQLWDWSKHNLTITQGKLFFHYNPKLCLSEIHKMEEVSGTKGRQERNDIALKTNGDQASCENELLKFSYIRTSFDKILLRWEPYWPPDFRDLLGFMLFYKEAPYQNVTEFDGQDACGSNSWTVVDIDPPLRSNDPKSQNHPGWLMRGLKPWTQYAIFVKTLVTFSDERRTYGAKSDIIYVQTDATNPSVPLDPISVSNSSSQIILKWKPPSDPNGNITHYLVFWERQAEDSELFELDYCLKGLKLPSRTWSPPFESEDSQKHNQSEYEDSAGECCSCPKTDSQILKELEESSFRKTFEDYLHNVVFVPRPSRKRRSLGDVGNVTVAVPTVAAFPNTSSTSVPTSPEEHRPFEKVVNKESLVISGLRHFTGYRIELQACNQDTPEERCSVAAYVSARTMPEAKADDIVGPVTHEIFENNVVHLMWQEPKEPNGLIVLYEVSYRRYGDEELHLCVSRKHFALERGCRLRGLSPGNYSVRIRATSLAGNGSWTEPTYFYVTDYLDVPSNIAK
The experiment can be described thus: SPR, IGF1R-3 VHH (1 nM per text) injected over immobilised human Insulin Receptor surface (curve without asterisk). As to the method: (§1) Approximately 3000 Resonance Units (RU) of recombinant human IGF1R were immobilized on a Sensor chip CM5. Immobilization was carried out at a concentration of 10 μg/ml in 10 mM acetate at pH4.0 using the amine coupling kit supplied by the manufacturer. The remaining binding sites were blocked with 1 M ethanolamine pH 8.5. An ethanolamine blocked surface was used as a reference surface. For the binding studies, analyses were carried out at 25° C. in 10 mM HEPES, pH7.4 containing 150 mM NaCl, 3 mM EDTA and 0.005% surfactant P20 (Polyoxyethylenesorbitan; GE Healthcare). […] Surfaces were regenerated with 10 mM glycine pH 2.0 with a contact time of 24 seconds. Data were analyzed with BIAevaluation 4.1 software (GE Healthcare).
Take B1: the binding result is “no binding (tested: 1 nM)”.

The next experiment deals with T2, recombinant extracellular portion of human IGF1R (IGF1R^933-His) (human, UniProt P08069 31-933).
T2 construct: It contains a furin cleavage site (RKRR) between the alpha and beta subunits, so the secreted protein may be two disulphide-linked chains; Immobilized by amine coupling on a CM5 chip; also called recombinant human IGF1R; human IGF1R fragment; not shown: His tag from vector pCDN4/myc-His
Description: SPR, Biacore 3000, human IGF1R immobilized on CM5, VHH as analyte, 1:1 model. As to the method: as §1
Consider B2, for which the Kd amounted to 1.4 nM and the koff worked out at 0.00055 s⁻¹.
For the molecule B1, the dissociation constant (Kd) was determined as 1.3 nM and the koff turned out to be 0.00013 s⁻¹.
For B3, in that order: 7.5 nM and 0.0025 s⁻¹.
In the case of B4, the Kd came to 47 nM and the koff stood at 0.0023 s⁻¹.
For B5, in that order: 6.6 nM and 0.00072 s⁻¹.
